The target in test [1] is fibronectin from human plasma (full-length soluble fibronectin) (human) (UniProt P02751). Kind of test: fluorescence saturation binding, fluorophore-labeled MBP-MAM on immobilized fibronectin (coated plates).
Test [2] concerns the target fibronectin on host cells (UniProt P02751). The test can be described thus: cell-based or functional assay.

For “MBP-MAM6 (6xHis-MBP-Cys-six mce domains), Alexa Fluor 488-labeled”, the Kd in test [1] was determined as 36 µM.

On to “MBP-MAM7 (6xHis-MBP-Cys-MAM7, seven mce domains), Alexa Fluor 488-labeled (from UniProt P0AEX9 27-392)”, for which, in test [2], the delay of attachment of labeled MAM7 protein to trypsin-treated host cells came to 1 h.

The values are drawn from US20140093477A1.
